Test results reported in US20240270821A1, “GIP/GLP1/GCG TRI-RECEPTOR AGONISTS AND USES THEREOF” (priority 2023, published 2024).
Numbering of substitutions follows the chain as printed.

T1: human GIP receptor (human) (UniProt P48546)
T1 sequence (looked up): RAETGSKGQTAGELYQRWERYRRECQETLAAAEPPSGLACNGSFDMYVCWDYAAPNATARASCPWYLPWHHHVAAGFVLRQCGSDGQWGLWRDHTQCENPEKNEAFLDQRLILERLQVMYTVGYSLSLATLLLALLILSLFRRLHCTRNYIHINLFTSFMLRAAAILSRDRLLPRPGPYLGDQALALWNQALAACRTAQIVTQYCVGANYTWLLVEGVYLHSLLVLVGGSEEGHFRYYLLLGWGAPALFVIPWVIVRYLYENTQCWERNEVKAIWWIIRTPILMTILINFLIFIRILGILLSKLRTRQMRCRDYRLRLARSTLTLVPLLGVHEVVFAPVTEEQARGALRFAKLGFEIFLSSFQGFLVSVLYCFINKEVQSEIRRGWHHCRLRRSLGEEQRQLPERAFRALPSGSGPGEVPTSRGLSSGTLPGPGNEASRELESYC

B1: Example 206 (peptide)
chain: YXQGTFTSDFSXXLDKKAQXAFIEYLLEAGPSSGAPPPEGE
modifications: Aib, Orn, αMeL, D-Ala; AEEA-γGlu-C18 diacid acyl; amide; synthetic construct; SITE 2: note = 2-Aminoisobutyric Acid; SITE 12: note = L-ornithine; SITE 13: note = alpha-methyl-leucine; SITE 17: note = Lysine is chemically modified through conjugation of the epsilon-amino group of the Lysine side chain with (2-[2-(2-Amino-ethoxy)-ethoxy]-acetyl)-(gamma-Glu)
B2: Example 258 (peptide)
chain: B1 chain with A35X, E39S, E41X
modifications: synthetic construct; SITE 2: note = 2-Aminoisobutyric Acid; SITE 12: note = L-ornithine; SITE 13: note = alpha-methyl-leucine; SITE 17: note = Lysine is chemically modified through conjugation of the epsilon-amino group of the Lysine side chain with (2-[2-(2-Amino-ethoxy)-ethoxy]-acetyl)2-(gamma-Glu)
B3: Example 243 (peptide)
chain: B1 chain with A29X, P31H, E39S, E41S
modifications: Aib, Orn, αMeL; lipidated Lys; C-terminal amide; synthetic construct; SITE 2: note = 2-Aminoisobutyric Acid; SITE 12: note = L-ornithine; SITE 13: note = alpha-methyl-leucine; SITE 17: note = Lysine is chemically modified through conjugation of the epsilon-amino group of the Lysine side chain with (2-[2-(2-Amino-ethoxy)-ethoxy]-acetyl)-(gamma-Glu)
B4: Example 219 (peptide)
chain: B1 chain with L27I, A29X, P31E, E39S
modifications: non-natural residues; lipidated Lys; C-terminal amide; synthetic construct; SITE 2: note = 2-Aminoisobutyric Acid; SITE 12: note = L-ornithine; SITE 13: note = alpha-methyl-leucine; SITE 17: note = Lysine is chemically modified through conjugation of the epsilon-amino group of the Lysine side chain with (2-[2-(2-Amino-ethoxy)-ethoxy]-acetyl)-(gamma-Glu)
B5: Example 268 (peptide)
chain: B1 chain with Y25W, A29G, P31X, E39S, E41T
modifications: synthetic construct; SITE 2: note = 2-Aminoisobutyric Acid; SITE 12: note = L-ornithine; SITE 13: note = alpha-methyl-leucine; SITE 17: note = Lysine is chemically modified through conjugation of the epsilon-amino group of the Lysine side chain with (2-[2-(2-Amino-ethoxy)-ethoxy]-acetyl)-(gamma-Glu)
B6: Example 260 (peptide)
chain: B1 chain with A29G, E39S, E41T
modifications: synthetic construct; SITE 2: note = 2-Aminoisobutyric Acid; SITE 12: note = L-ornithine; SITE 13: note = alpha-methyl-leucine; SITE 17: note = Lysine is chemically modified through conjugation of the epsilon-amino group of the Lysine side chain with (gamma-Glu)2-CO-(CH2)16-CO2H; SITE 20: note = 2-Am
B7: Example 264 (peptide)
chain: B1 chain with Y25W, A29X, P31S, E39S, E41T
modifications: synthetic construct; SITE 2: note = 2-Aminoisobutyric Acid; SITE 12: note = L-ornithine; SITE 13: note = alpha-methyl-leucine; SITE 17: note = Lysine is chemically modified through conjugation of the epsilon-amino group of the Lysine side chain with (2-[2-(2-Amino-ethoxy)-ethoxy]-acetyl)-(gamma-Glu)
B8: Example 146 (peptide)
chain: B1 chain with X12K, A29G, P31E, E39S, E41S
modifications: synthetic construct; SITE 2: note = 2-Aminoisobutyric Acid; SITE 13: note = alpha-methyl-leucine; SITE 17: note = Lysine is chemically modified through conjugation of the epsilon-amino group of the Lysine side chain with (2-[2-(2-Amino-ethoxy)-ethoxy]-acetyl)-(gamma-Glu)-CO-(CH2) 16-CO2H; SITE 20: n
B9: Example 235 (peptide)
chain: B1 chain with A29G, P36X, E39G, E41S
modifications: Aib, Orn, αMeL, Hyp; AEEA-γGlu-C18 diacid on Lys; C-terminal amide; synthetic construct; SITE 2: note = 2-Aminoisobutyric Acid; SITE 12: note = L-ornithine; SITE 13: note = alpha-methyl-leucine; SITE 17: note = Lysine is chemically modified through conjugation of the epsilon-amino group of the Lysine side chain with (2-[2-(2-Amino-ethoxy)-ethoxy]-acetyl)-(gamma-Glu)
B10: Example 257 (peptide)
chain: B1 chain with A35X, E39S, E41H
modifications: synthetic construct; SITE 2: note = 2-Aminoisobutyric Acid; SITE 12: note = L-ornithine; SITE 13: note = alpha-methyl-leucine; SITE 17: note = Lysine is chemically modified through conjugation of the epsilon-amino group of the Lysine side chain with (2-[2-(2-Amino-ethoxy)-ethoxy]-acetyl)2-(gamma-Glu)
B11: Example 237 (peptide)
chain: B1 chain with A29G, P38X, E39G, E41S
modifications: non-natural residues; lipidated Lys AEEA-γGlu-C18 diacid; C-term amide; synthetic construct; SITE 2: note = 2-Aminoisobutyric Acid; SITE 12: note = L-ornithine; SITE 13: note = alpha-methyl-leucine; SITE 17: note = Lysine is chemically modified through conjugation of the epsilon-amino group of the Lysine side chain with (2-[2-(2-Amino-ethoxy)-ethoxy]-acetyl)-(gamma-Glu)
B12: Example 244 (peptide)
chain: B1 chain with A29X, P31E, E39S, E41S
modifications: Aib, Orn, αMeL; γGlu-AEEA-γGlu-C18 diacid on Lys; C-terminal amide; synthetic construct; SITE 2: note = 2-Aminoisobutyric Acid; SITE 12: note = L-ornithine; SITE 13: note = alpha-methyl-leucine; SITE 17: note = Lysine is chemically modified through conjugation of the epsilon-amino group of the Lysine side chain with (gamma-Glu)-(2-[2-(2-Amino-ethoxy)-ethoxy]-acetyl)
B13: Example 259 (peptide)
chain: B1 chain with E39S, E41H
modifications: synthetic construct; SITE 2: note = 2-Aminoisobutyric Acid; SITE 12: note = L-ornithine; SITE 13: note = alpha-methyl-leucine; SITE 17: note = Lysine is chemically modified through conjugation of the epsilon-amino group of the Lysine side chain with (2-[2-(2-Amino-ethoxy)-ethoxy]-acetyl)-(gamma-Glu)
B14: Example 210 (peptide)
chain: B1 chain with E39S, E41T
modifications: non-natural residues, lysine acylation, C-terminal amide; synthetic construct; SITE 2: note = 2-Aminoisobutyric Acid; SITE 12: note = L-ornithine; SITE 13: note = alpha-methyl-leucine; SITE 17: note = Lysine is chemically modified through conjugation of the epsilon-amino group of the Lysine side chain with (2-[2-(2-Amino-ethoxy)-ethoxy]-acetyl)-(gamma-Glu)
B15: Example 207 (peptide)
chain: B1 chain with P31H, E39S
modifications: Aib, Orn, αMeL, D-Ala; lysine acylated C18 diacid; amide; synthetic construct; SITE 2: note = 2-Aminoisobutyric Acid; SITE 12: note = L-ornithine; SITE 13: note = alpha-methyl-leucine; SITE 17: note = Lysine is chemically modified through conjugation of the epsilon-amino group of the Lysine side chain with (2-[2-(2-Amino-ethoxy)-ethoxy]-acetyl)-(gamma-Glu)

The binders below were run against T1, human GIP receptor (human) (assay: cell-based or functional assay).

Binder | Relative cAMP EC50 | cAMP Rel EC50, nM (1% HSA) | cAMP Rel EC50 (in the presence of 1% HSA) | cAMP Rel EC50, nM (in the presence of 1% HSA)
B1 | 0.224 nM | 38.8 nM |  | 
B2 | 0.154 nM |  | 23.3 nM | 
B3 | 0.178 nM |  |  | 
B4 | 0.119 nM |  |  | 
B5 | 0.274 nM |  | 33.7 nM | 
B6 | 0.251 nM |  | 12.4 nM | 
B7 | 0.0884 nM |  | 12.4 nM | 
B8 |  |  |  | 74.6 nM
B9 | 0.388 nM | 40.8 nM |  | 
B10 | 0.135 nM |  | 21 nM | 
B11 | 0.228 nM | 30.9 nM |  | 
B12 | 0.0972 nM | 18.8 nM |  | 
B13 | 0.114 nM |  | 18.4 nM | 
B14 | 0.153 nM |  |  | 
B15 | 0.321 nM | 15.2 nM |  | 

The binders below were run against hGLP-1R (Homo sapiens, UniProt P43220) (assay: cell-based or functional assay).
Chain of hGLP-1R (P43220 24-463): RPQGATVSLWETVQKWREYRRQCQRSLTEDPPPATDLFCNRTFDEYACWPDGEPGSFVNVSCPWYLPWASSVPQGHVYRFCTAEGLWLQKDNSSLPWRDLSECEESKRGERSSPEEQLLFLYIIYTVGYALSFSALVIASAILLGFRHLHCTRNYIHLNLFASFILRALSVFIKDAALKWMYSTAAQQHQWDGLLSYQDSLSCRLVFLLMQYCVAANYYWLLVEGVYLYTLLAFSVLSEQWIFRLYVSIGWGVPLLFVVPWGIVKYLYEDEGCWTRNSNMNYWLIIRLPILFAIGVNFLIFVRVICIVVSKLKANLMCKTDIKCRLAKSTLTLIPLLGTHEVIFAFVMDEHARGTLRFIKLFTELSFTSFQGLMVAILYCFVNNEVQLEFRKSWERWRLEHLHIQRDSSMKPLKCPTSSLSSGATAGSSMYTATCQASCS

Binder | Relative cAMP EC50 | cAMP Rel EC50, nM (1% HSA) | cAMP Rel EC50 (in the presence of 1% HSA) | cAMP Rel EC50, nM (in the presence of 1% HSA)
B1 | 2.77 nM | 372 nM |  | 
B2 | 2.71 nM |  | 492 nM | 
B3 | 6.46 nM |  |  | 
B4 | 0.835 nM |  |  | 
B5 | 3.14 nM |  | 437 nM | 
B6 | 3.85 nM |  | 160 nM | 
B7 | 4.67 nM |  | 688 nM | 
B8 |  |  |  | 678 nM
B9 | 3.55 nM | 457 nM |  | 
B10 | 2.66 nM |  | 388 nM | 
B11 | 3.4 nM | 291 nM |  | 
B12 | 7.68 nM | 645 nM |  | 
B13 | 1.47 nM |  | 220 nM | 
B14 | 1.44 nM |  |  | 
B15 | 4.36 nM | 225 nM |  | 

These binders were tested against human glucagon receptor (human) (UniProt P47871) (assay: cell-based or functional assay).
Chain of human glucagon receptor (human) (P47871 26-477): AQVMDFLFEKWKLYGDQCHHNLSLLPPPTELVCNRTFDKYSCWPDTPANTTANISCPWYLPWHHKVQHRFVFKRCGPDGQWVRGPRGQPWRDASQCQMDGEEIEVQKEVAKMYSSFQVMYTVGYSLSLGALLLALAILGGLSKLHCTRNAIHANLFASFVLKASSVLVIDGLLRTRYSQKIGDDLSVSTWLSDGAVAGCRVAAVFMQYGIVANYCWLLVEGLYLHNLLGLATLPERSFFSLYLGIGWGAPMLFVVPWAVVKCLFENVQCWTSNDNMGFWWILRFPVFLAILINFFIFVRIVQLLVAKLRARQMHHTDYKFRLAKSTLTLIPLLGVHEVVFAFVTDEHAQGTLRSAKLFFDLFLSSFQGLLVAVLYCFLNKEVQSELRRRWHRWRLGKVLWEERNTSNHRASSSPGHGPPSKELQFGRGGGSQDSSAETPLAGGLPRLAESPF

Binder | Relative cAMP EC50 | cAMP Rel EC50, nM (1% HSA) | cAMP Rel EC50 (in the presence of 1% HSA) | cAMP Rel EC50, nM (in the presence of 1% HSA)
B1 | 2.2 nM | 545 nM |  | 
B2 | 7.15 nM |  | 1280 nM | 
B3 | 6.86 nM |  |  | 
B4 | 7.77 nM |  |  | 
B5 | 7.69 nM |  | 1300 nM | 
B6 | 5.04 nM |  | 162 nM | 
B7 | 6.29 nM |  | 1000 nM | 
B8 |  |  |  | 463 nM
B9 | 4.35 nM | 700 nM |  | 
B10 | 7.36 nM |  | 1210 nM | 
B11 | 3.77 nM | 441 nM |  | 
B12 | 4.81 nM | 1230 nM |  | 
B13 | 2.55 nM |  | 317 nM | 
B14 | 2.81 nM |  |  | 
B15 | 4.24 nM | 770 nM |  | 
